Source: patent publication US5980890A, “Purification and characterization of alkaline phosphates from Thermotoga neapolitana” (Michigan State University, priority 1997, dated 1999)
Counter-ions that a name gives are not always drawn.

T1: Thermotoga neapolitana (DSM 5068) alkaline phosphatase, purified native enzyme (Thermotoga neapolitana, UniProt B9K6X5)
T1 sequence (B9K6X5 23-436): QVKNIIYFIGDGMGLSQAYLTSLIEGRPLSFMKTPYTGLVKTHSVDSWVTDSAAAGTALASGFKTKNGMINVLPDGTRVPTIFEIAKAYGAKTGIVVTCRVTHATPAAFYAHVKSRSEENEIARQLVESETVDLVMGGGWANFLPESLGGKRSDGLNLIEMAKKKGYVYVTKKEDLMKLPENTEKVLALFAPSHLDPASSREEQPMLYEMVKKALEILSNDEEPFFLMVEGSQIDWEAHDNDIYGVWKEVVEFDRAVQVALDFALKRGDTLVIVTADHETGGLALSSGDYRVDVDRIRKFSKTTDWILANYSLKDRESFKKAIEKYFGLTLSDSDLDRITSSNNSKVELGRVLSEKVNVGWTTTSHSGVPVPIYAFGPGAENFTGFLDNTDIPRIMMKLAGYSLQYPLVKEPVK

B1: Thermotoga neapolitana (DSM 5068) alkaline phosphatase, purified native enzyme (Thermotoga neapolitana DSM 4359) (protein)
chain: T1 sequence (B9K6X5 23-436)

Experiments:
[1] = biological target: T1, Thermotoga neapolitana (DSM 5068) alkaline phosphatase, purified native enzyme; test: biochemical; details: 1 h, read-out: original activity detected after exhaustive treatment with EDTA
Description: The initial linear change in the absorbance at 410 nm was detected by recording spectrophotometer (Cary 219, U.S.A.), thermostated at 60° C. One enzyme activity unit represents the hydrolysis of 1 μl mole of substrate per min under these standard assay condition.
The purified alkaline phosphatase in Buffer A was incubated at room temperature for 1 h in the presence of EDTA at 0.0-5.0 mM concentration respectively. The residual enzyme activity was assayed under standard conditions.
For metal ion treatment, 10 mM EDTA was added into a tube containing the purified alkaline phosphatase in Buffer A. After 1 h, the mixture was dialyzed against Buffer A containing 2 mM EDTA and then three times against Buffer A without EDTA. Subsequently, 2 mM of different metal ions were added to the deionized enzyme solutions, and the mixtures were incubated for 1 h at room temperature. For a comparison, 2 mM of various metal ions were added directly to purified protein and incubated under the same conditions. All the metal ions used were in chloride form. The enzyme activity was assayed under standard conditions.

[2] = substrate: O=[N+]([O-])c1ccc(OP(=O)(O)O)cc1; test: purified protein, by the assay type; details: other: p-nitrophenyl phosphate as substrate, optimal temperature and pH conditions (85° C., pH 9.9)

| Molecule | activity at 10000 µM [1] [%] | Km [2] [µM] | Vmax [2] [U/mg] |
| --- | --- | --- | --- |
| O=C(O)CN(CCN(CC(=O)O)CC(=O)O)CC(=O)O [EDTA, Ethylenediamine tetraacetic acid disodium salt] | ~5 | – | – |
| B1 | – | 183 | 1352 |
